Results as given in patent publication US8647613B2, “Drug carrier” (JCR Pharmaceuticals Co., Ltd., priority 2005, dated 2014).
Values belong to the molecule of their own block, whether it stands above or below them.

Assays:
[1] = cited from earlier work; for Isoelectric point: Table 2; for Isoelectric point (-): Table 5
[2] = Hydrolysis of compound 28 in the liposome at low pH (thin layer chromatography); assay type: physicochemical; conditions: PBS pH 4.5, 37° C., 24 hours, liposome 3/4/3/0.03
Method: The prepared liposome (DOPC/chol/(28)/PEG-DPE=3/4/3/0.03, molar ratio) was dispersed in PBS of pH 4.5 at 37° C., and the dispersion was lyophilized 24 hours later. The dried mixed lipid powder was dissolved in chloroform and detected by thin layer chromatography (silica gel plate, chloroform/methanol (8/1) (volume/volume) detection: iodine).

Molecule: Thyrogrobulin: model protein, 670 kDa
Isoelectric point [1]: 4.5 | Isoelectric point (-) [1]: 4.5

hydrolysis in the liposome at low pH [2]: hydrolyzed
Molecule: CCCCCCCCCCCCCCCCOC(=O)CCC(NC(=O)C(N)CCC(=O)O)C(=O)OCCCCCCCCCCCCCCCC (centres unmarked) [compound 28]

Molecule: α-Lactalbumin: model protein, molecular weight 14 kDa
Isoelectric point [1]: 4.1-4.8 | Isoelectric point (-) [1]: 4.1-4.8

Molecule: Ferritin
Isoelectric point [1]: 4.0-5.0 | Isoelectric point (-) [1]: 4.0-5.0

B1: Catalase (from bovie liver): model protein, 232 kDa (protein, UniProt P00432 2-527, looked up)
Catalase: ADNRDPASDQMKHWKEQRAAQKPDVLTTGGGNPVGDKLNSLTVGPRGPLLVQDVVFTDEMAHFDRERIPERVVHAKGAGAFGYFEVTHDITRYSKAKVFEHIGKRTPIAVRFSTVAGESGSADTVRDPRGFAVKFYTEDGNWDLVGNNTPIFFIRDALLFPSFIHSQKRNPQTHLKDPDMVWDFWSLRPESLHQVSFLFSDRGIPDGHRHMNGYGSHTFKLVNANGEAVYCKFHYKTDQGIKNLSVEDAARLAHEDPDYGLRDLFNAIATGNYPSWTLYIQVMTFSEAEIFPFNPFDLTKVWPHGDYPLIPVGKLVLNRNPVNYFAEVEQLAFDPSNMPPGIEPSPDKMLQGRLFAYPDTHRHRLGPNYLQIPVNCPYRARVANYQRDGPMCMMDNQGGAPNYYPNSFSAPEHQPSALEHRTHFSGDVQRFNSANDDNVTQVRTFYLKVLNEEQRKRLCENIAGHLKDAQLFIQKKAVKNFSDVHPEYGSRIQALLDKYNEEKPKNAVHTYVQHGSHLSAREKANL
Isoelectric point (-) [1]: 5.5
